Results: paper PMC9104438, “Application of a Fluorescence Anisotropy-Based Assay to Quantify Transglutaminase 2 Activity in Cell Lysates” (International Journal of Molecular Sciences, 2022)

Target: T1, hTGase 3 (Homo sapiens, UniProt Q08188)
T1 sequence (Q08188 2-467 limits assumed): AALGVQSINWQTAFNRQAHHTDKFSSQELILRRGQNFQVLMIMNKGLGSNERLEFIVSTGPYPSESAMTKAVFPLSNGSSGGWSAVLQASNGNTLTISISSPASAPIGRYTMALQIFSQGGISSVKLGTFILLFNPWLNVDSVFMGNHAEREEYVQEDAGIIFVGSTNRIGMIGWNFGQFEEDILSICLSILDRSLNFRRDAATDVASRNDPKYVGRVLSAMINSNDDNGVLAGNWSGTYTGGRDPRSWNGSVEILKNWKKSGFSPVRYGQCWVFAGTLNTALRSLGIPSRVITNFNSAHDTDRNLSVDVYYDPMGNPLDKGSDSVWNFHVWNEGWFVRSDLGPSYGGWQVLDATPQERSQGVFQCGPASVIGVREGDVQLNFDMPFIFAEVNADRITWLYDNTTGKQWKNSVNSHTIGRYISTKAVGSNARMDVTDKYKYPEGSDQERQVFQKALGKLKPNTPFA
T1 sequence (Q08188 468-693 partner limits assumed): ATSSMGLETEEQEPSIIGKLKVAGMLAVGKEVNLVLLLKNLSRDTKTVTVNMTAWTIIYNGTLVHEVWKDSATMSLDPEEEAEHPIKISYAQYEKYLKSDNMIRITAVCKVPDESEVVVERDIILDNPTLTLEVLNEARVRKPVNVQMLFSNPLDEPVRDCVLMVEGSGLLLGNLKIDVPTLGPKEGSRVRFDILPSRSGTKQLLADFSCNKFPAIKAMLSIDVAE
Assay: FA-based assay, kinetic characterization of acyl donor DMC with R-I-Cad
Assay type: biochemical
Design: purchased Zedira T013
Conditions: hTGase 3 5 µg/mL, R-I-Cad 0.74 µM, mean (SEM)
Method: For the kinetic characterization of DMC (Figure 1B) in the presence of a fixed concentration of R-I-Cad (0.74 µM), eight different concentrations of DMC (0.3–300 µM) were used (2–3 separate experiments, each performed in duplicate). The corresponding stock solutions of DMC and R-I-Cad were prepared in assay buffer A and DMSO, respectively. […] Values for Km, Ki and Vmax were calculated according to the equation of substrate inhibition (Equation (2)). (2) v=Vmax∗[S]/Km+[S]∗(1+[S]/Ki)

Ki (read-out: Ki (substrate inhibition)): 571 µM
Substance: N,N-dimethylated casein [DMC]
Km: 6.29 µM
Vmax (pH 8.0, 30 °C): 5.80 (0.09) mA mL s^−1 mg^−1
